Test results published in US20160263250A1 (GENERAL HOSPITAL, published 2016).

Legend:
[1] = target: Exendin-4X12-VT750; experiment: cell-labeling assay, fluorescence plate reader, MIN6 cells
[2] = target: Exendin-4K12-VT680; experiment: in vivo injection into NOD MIP-GFP mice; intravital imaging and fluorescence histology
[3] = target: Exendin-4 (UniProt P26349 48-86); experiment: blocking on MIN6 cells: Exendin-4 (0-500 nM), then Exendin-4X12-VT750 (10 nM); competitor Exendin-4X12-VT750

Measured: binding result

B1: GLP-1R naturally expressed on mouse insulinoma-derived MIN6 cells and mouse pancreatic beta cells (receptor)
chain: GPRPQGTTVSLSETVQKWREYRRQCQRFLTEAPLLATGLFCNRTFDDYACWPDGPPGSFVNVSCPWYLPWASSVLQGHVYRFCTAEGLWLHKDNSSLPWRDLSECEESKRGERNFPEEQLLSLYIIYTVGYALSFSALVIASAILVGFRHLHCTRNYIHLNLFASFILRALSVFIKDAALKWMYSTAAQQHQWDGLLSYQDSLGCRLVFLLMQYCVAANYYWLLVEGVYLYTLLAFSVFSEQRIFKLYLSIGWGVPLLFVIPWGIVKYLYEDEGCWTRNSNMNYWLIIRLPILFAIGVNFLIFIRVICIVVSKLKANLMCKTDIKCRLAKSTLTLIPLLGTHEVIFAFVMDEHARGTLRFIKLFTELSFTSFQGLMVAILYCFVNNEVQMEFRKCWERWRLEHLNIQRDCSMKPLKCPTSSVSSGATVGSSVYAATCQSSYS
notes: whole, on cells; The species follows from the cell line and the animals; also called GLP-1R (MIN6); GLP-1 receptors in vivo (mouse)
binds: all assays above
